Test results taken from patent US20170183403A1 (UNIVERSIT T Z RICH, published 2017).

Columns and labels:
Reference peptide no. 10 [1] = target: T1, Reference peptide no. 10; test: peptide microarray (RepliTope)
T1 construct: hIL-2 15-mer, first library, on microarray; also called peptide 10
T1 peptide: INNYKNPKLTRMLTF
Description: (§1) Additional incubations are with unrelated antibodies from the same isotype (mouse control IgG2a/lambda and mouse control IgG2a/kappa), and secondary antibodies (anti-mouse IgG (Thermo 84545, label DL650) or anti-mouse IgG (JIR 115-175-072, Label Cy5)) to assess unspecific binding due to the detection antibody. The experiments are performed essentially as described in Maksimov P, et al. 2012, PLoS One 7:e34212. doi:10.1371/journal. pone. 0034212.
(§2) The determination of peptide-antibody binding was performed by RepliTope-analysis where the peptide microarray (triplicate) was incubated with the primary antibody followed by a fluorescently labelled secondary antibody directed against the Fc-part of the primary one. All steps were performed on a TECAN microarray processing station enabling highly reliable and reproducible washing and incubation steps. After performing the incubation steps and subsequent to the final washing steps (to remove the unbound secondary antibodies) the microarrays were dried using a nitrogen stream and scanned in a high resolution microarray scanning system with appropriate wavelength settings. Control incubations were performed with an unrelated antibody having the same isotype to exclude false positive signals.
(§3) The resulting images were analyzed und quantified using spot-recognition software GenePix (Molecular Devices). For each spot, the mean signal intensity was extracted (between 0 and 65535 arbitrary units). For further data evaluation, the MMC2 values were determined. The MMC2 equals the mean value of all three instances on the microarray. Except the coefficient of variation (CV)—standard-deviation divided by the mean value—is larger 0.5, in this case the mean of the two closest values (MC2) is assigned to MMC2.

Reference peptide no. 11 [2] = target: T2, Reference peptide no. 11; test: peptide microarray (RepliTope)
T2 construct: hIL-2 15-mer, first library, on microarray; also called peptide 11
T2 peptide: YKNPKLTRMLTFKFY
Description: as §1, §2, §3

Reference peptide no. 12 [3] = target: T3, Reference peptide no. 12; test: peptide microarray (RepliTope)
T3 construct: hIL-2 15-mer, first library, on microarray; also called peptide 12
T3 peptide: PKLTRMLTFKFYMPK
Description: as §1, §2, §3

Reference peptide no. 13 [4] = target: T4, Reference peptide no. 13; test: peptide microarray (RepliTope)
T4 construct: hIL-2 15-mer, first library, on microarray; also called peptide 13
T4 peptide: TRMLTFKFYMPKKAT
Description: as §1, §2, §3

Reference peptide no. 22 = target: T5, Reference peptide no. 22; test: peptide microarray (RepliTope)
T5 construct: hIL-2 15-mer, first library, on microarray; also called peptide 22
T5 peptide: KPLEEVLNLAQSKNF
Description: as §1, §2, §3

Reference peptide no. 23 = target: T6, Reference peptide no. 23; test: peptide microarray (RepliTope)
T6 construct: hIL-2 15-mer, first library, on microarray; also called peptide 23
T6 peptide: EEVLNLAQSKNFHLR
Description: as §1, §2, §3

Reference peptide no. 24 = target: T7, Reference peptide no. 24; test: peptide microarray (RepliTope)
T7 construct: hIL-2 15-mer, first library, on microarray; also called peptide 24
T7 peptide: LNLAQSKNFHLRPRD
Description: as §1, §2, §3

Reference peptide no. 25 = target: T8, Reference peptide no. 25; test: peptide microarray (RepliTope)
T8 construct: hIL-2 15-mer, first library, on microarray; also called peptide 25
T8 peptide: AQSKNFHLRPRDLIS
Description: as §1, §2, §3

Reference peptide no. 26 = target: T9, Reference peptide no. 26; test: peptide microarray (RepliTope)
T9 construct: hIL-2 15-mer, first library, on microarray; also called peptide 26
T9 peptide: KNFHLRPRDLISNIN
Description: as §1, §2, §3

Reference peptide no. 8 = target: T10, Reference peptide no. 8; test: peptide microarray (RepliTope), 15-mers
T10 construct: hIL-2 15-mer, first library, on microarray; also called peptide 8
T10 peptide: QMILNGINNYKNPKL
Description: as §1, §2, §3

Reference peptide no. 18 = target: T11, Reference peptide no. 18; test: peptide microarray (RepliTope), 15-mers
T11 construct: hIL-2 15-mer, first library, parental Cys replaced by Ser, on microarray; also called peptide 18
T11 peptide: ELKHLQSLEEELKPL
Description: as §1, §2, §3

Reference peptide no. 33 = target: T12, Reference peptide no. 33; test: peptide microarray (RepliTope), 15-mers
T12 construct: hIL-2 15-mer, first library, parental Cys replaced by Ser, on microarray; also called peptide 33
T12 peptide: KGSETTFMSEYADET
Description: as §1, §2, §3

Reference peptide no. 10 [5] = target: T1, Reference peptide no. 10; test: peptide microarray (RepliTope), Ala mutagenesis set
Reference peptide no. 11 [6] = target: T2, Reference peptide no. 11; test: as above
Reference peptide no. 12 [7] = target: T3, Reference peptide no. 12; test: as above
Reference peptide no. 13 [8] = target: T4, Reference peptide no. 13; test: as above
Reference peptide no. 42 = target: T13, Reference peptide no. 42; test: as above
T13 construct: second library: peptide 10 with F(62) to Ala; also called peptide 42
T13 peptide: INNYKNPKLTRMLTA

Reference peptide no. 43 = target: T14, Reference peptide no. 43; test: as above
T14 construct: second library: peptide 11 with F(62) to Ala; also called peptide 43
T14 peptide: YKNPKLTRMLTAKFY

Reference peptide no. 44 = target: T15, Reference peptide no. 44; test: as above
T15 construct: second library: peptide 12 with F(62) to Ala; also called peptide 44
T15 peptide: PKLTRMLTAKFYMPK

Reference peptide no. 45 = target: T16, Reference peptide no. 45; test: as above
T16 construct: second library: peptide 13 with F(62) to Ala; also called peptide 45
T16 peptide: TRMLTAKFYMPKKAT

Reference peptide no. 47 = target: T17, Reference peptide no. 47; test: as above
T17 construct: second library: peptide 11 with Y(65) to Ala; also called peptide 47
T17 peptide: YKNPKLTRMLTFKFA

Reference peptide no. 49 = target: T18, Reference peptide no. 49; test: as above
T18 construct: second library: peptide 13 with Y(65) to Ala; also called peptide 49
T18 peptide: TRMLTFKFAMPKKAT

Reference peptide no. 52 = target: T19, Reference peptide no. 52; test: as above
T19 construct: second library: peptide 11 with F(62) and Y(65) to Ala; also called peptide 52
T19 peptide: YKNPKLTRMLTAKFA

murine IL-2 = target: T20, murine IL-2 (mouse, UniProt P04351 21-169); test: SPR, NARA1 amine-coupled to a GLM chip, mouse IL-2 as analyte at 10, 3.3, 1.1, 0.37, 0.123 and 0.041 nM
T20 construct: also called mouse IL-2; mIL-2
T20 sequence (looked up): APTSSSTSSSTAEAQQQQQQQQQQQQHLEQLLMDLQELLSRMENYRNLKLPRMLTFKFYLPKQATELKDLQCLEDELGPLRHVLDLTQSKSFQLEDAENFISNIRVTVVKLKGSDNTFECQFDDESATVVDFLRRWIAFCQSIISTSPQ

signal intensity after subtraction of control signal (Reference peptide no. 10 [1]): 20900 AU | signal intensity after subtraction of control signal (Reference peptide no. 11 [2]): 1190 AU | signal intensity after subtraction of control signal (Reference peptide no. 12 [3]): 1130 AU | signal intensity after subtraction of control signal (Reference peptide no. 13 [4]): 224 AU | signal intensity after subtraction of control signal (Reference peptide no. 22): 0 AU | signal intensity after subtraction of control signal (Reference peptide no. 23): 32 AU | signal intensity after subtraction of control signal (Reference peptide no. 24): 282 AU | signal intensity after subtraction of control signal (Reference peptide no. 25): 0 AU | signal intensity after subtraction of control signal (Reference peptide no. 26): 0 AU | binding result (Reference peptide no. 8): no binding | binding result (Reference peptide no. 18): no binding | binding result (Reference peptide no. 33): no binding | binding result (murine IL-2): no binding (tested: 10 nM)
B1: NARA1 (antibody, mouse IgG2a, kappa, V domains shown)
VH: QVQLQQSGAELVRPGTSVKVSCKASGYAFTNYLIEWVKQRPGQGLEWIGVINPGSGGTNYNEKFKGKATLTADKSSSTAYMQLSSLTSDDSAVYFCARWRGDGYYAYFDVWGAGTTVTVSS
VL: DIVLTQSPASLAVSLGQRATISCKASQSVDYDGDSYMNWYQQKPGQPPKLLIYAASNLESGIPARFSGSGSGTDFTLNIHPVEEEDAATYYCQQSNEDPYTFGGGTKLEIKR
notes: Mouse monoclonal from hybridoma; Isotype controls used were mouse IgG2a; also called anti-IL2 (NARA1) antibody; monoclonal antibody NARA1
signal intensity after subtraction of control signal (Reference peptide no. 10 [5]): 20900 AU | signal intensity after subtraction of control signal (Reference peptide no. 11 [6]): 1190 AU | signal intensity after subtraction of control signal (Reference peptide no. 12 [7]): 1130 AU | signal intensity after subtraction of control signal (Reference peptide no. 13 [8]): 224 AU | signal intensity after subtraction of control signal (Reference peptide no. 42): 162 AU | signal intensity after subtraction of control signal (Reference peptide no. 43): 507 AU | signal intensity after subtraction of control signal (Reference peptide no. 44): 432 AU | signal intensity after subtraction of control signal (Reference peptide no. 45): 0 AU | signal intensity after subtraction of control signal (Reference peptide no. 47): 251 AU | signal intensity after subtraction of control signal (Reference peptide no. 49): 1490 AU | signal intensity after subtraction of control signal (Reference peptide no. 52): 238 AU
